This note sets out measurements from patent US20250250357A1 (NANJING ZAIMING PHARMACEUTICAL, published 2025).

Assay [1] concerns the target T1, human MSLN-R1-his protein (human, UniProt Q13421 296-390).
T1 construct: Region 1 of human mesothelin, made in HEK293E cells, His-tagged; also called human MSLN-R1 protein; hMSLN-R1-his; not shown: His tag
T1 chain: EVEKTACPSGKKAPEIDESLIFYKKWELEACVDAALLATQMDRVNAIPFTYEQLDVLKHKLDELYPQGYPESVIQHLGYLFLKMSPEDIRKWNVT
Description: ELISA on coated MSLN-R1; antibody 1 nM. (In general: An ELISA detects its analyte on a solid surface through an enzyme-linked reagent.)

Assay [2] concerns the target T2, human MSLN-R2-his protein (human, UniProt Q13421 391-486).
T2 construct: Region 2 of human mesothelin, made in HEK293E cells, His-tagged; also called human MSLN-R2 protein; hMSLN-R2-his; not shown: His tag
Description: ELISA on coated MSLN-R2; antibody 1 nM.

For assay [3], the target named is T1, human MSLN-R1-his protein. Description: ELISA on coated MSLN-R1; antibody 10 nM.
Description: (§1) The plate was sealed with a plastic film and incubated at 4° C. overnight. The next day, the plate was washed twice with PBST, and a blocking buffer [PBS+2% (w/w) BSA] was added for blocking at room temperature for 2 h. The blocking buffer was discarded, and a chimeric antibody or negative control antibody serially diluted from 100 nM was added at 50 μL/well. After incubation at 37° C. for 2 h, the plate was washed 3 times with PBST. […] After incubation at 37° C. for 2 h, the plate was washed 5 times with PBST. A TMB substrate was added at 50 μL/well for incubation at room temperature for 5-10 min, and then a stop solution (1.0 N HCl) was added at 50 μL/well.
For assay [4], the target named is T2, human MSLN-R2-his protein. Nature of the assay: ELISA on coated MSLN-R2; antibody 10 nM.
Description: as §1
In assay [5] the target is T1, human MSLN-R1-his protein. Description: ELISA on coated MSLN-R1; antibody 0.1 nM.
Assay [6] concerns the target T1, human MSLN-R1-his protein. Description: ELISA on coated MSLN-R1; antibody 100 nM.
Description: as §1
Assay [7] deals with T2, human MSLN-R2-his protein. Description: ELISA on coated MSLN-R2; antibody 0.1 nM.
Description: as §1
The target of assay [8] is T2, human MSLN-R2-his protein. Nature of the assay: ELISA on coated MSLN-R2; antibody 100 nM.
Description: as §1
Assay [9] concerns the target T1, human MSLN-R1-his protein. Description: ELISA on coated MSLN-R1; antibody 0.01 nM.
Description: as §1
The target of assay [10] is T2, human MSLN-R2-his protein. Description: ELISA on coated MSLN-R2; antibody 0.01 nM.
Description: as §1
For assay [11], the target named is T1, human MSLN-R1-his protein. Description: ELISA on coated MSLN-R1; antibody 0.001 nM.
Description: as §1
Assay [12] has as its target T2, human MSLN-R2-his protein. Nature of the assay: ELISA on coated MSLN-R2; antibody 0.001 nM.
Assay [13] concerns the target T1, human MSLN-R1-his protein. Description: ELISA on coated MSLN-R1; antibody 0.0001 nM.
The target of assay [14] is T2, human MSLN-R2-his protein. Description: ELISA on coated MSLN-R2; antibody 0.0001 nM.
Description: as §1
Assay [15] deals with T1, human MSLN-R1-his protein. Nature of the assay: ELISA on coated MSLN-R1; no antibody (blank).
Description: as §1
Assay [16] concerns the target T2, human MSLN-R2-his protein. Nature of the assay: ELISA on coated MSLN-R2; no antibody (blank).
Description: as §1
The target of assay [17] is T3, human MSLN-R3-his protein (human, UniProt Q13421 487-598).
T3 construct: Region 3 of human mesothelin, made in HEK293E cells, His-tagged; also called human MSLN-R3 protein; hMSLN-R3-his; not shown: His tag
T3 sequence (Q13421 495-606): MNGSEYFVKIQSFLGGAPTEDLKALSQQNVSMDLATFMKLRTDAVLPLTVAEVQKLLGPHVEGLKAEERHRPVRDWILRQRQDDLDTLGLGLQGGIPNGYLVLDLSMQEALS
Description: ELISA on coated MSLN-R3; antibody 1 nM.

Assay [18] concerns the target T3, human MSLN-R3-his protein. Description: ELISA on coated MSLN-R3; antibody 10 nM.
Description: as §1
The target in assay [19] is T3, human MSLN-R3-his protein. Nature of the assay: ELISA on coated MSLN-R3; antibody 0.1 nM.
Description: as §1
The target of assay [20] is T3, human MSLN-R3-his protein. Nature of the assay: ELISA on coated MSLN-R3; antibody 100 nM.
Assay [21] concerns the target T3, human MSLN-R3-his protein. Nature of the assay: ELISA on coated MSLN-R3; antibody 0.01 nM.
Description: as §1
The target of assay [22] is T3, human MSLN-R3-his protein. Description: ELISA on coated MSLN-R3; antibody 0.001 nM.
Assay [23] deals with T3, human MSLN-R3-his protein. Description: ELISA on coated MSLN-R3; antibody 0.0001 nM.
In assay [24] the target is T3, human MSLN-R3-his protein. Description: ELISA on coated MSLN-R3; no antibody (blank).

T2 sequence (Q13421 other isoform, or with tags, fused parts or gaps): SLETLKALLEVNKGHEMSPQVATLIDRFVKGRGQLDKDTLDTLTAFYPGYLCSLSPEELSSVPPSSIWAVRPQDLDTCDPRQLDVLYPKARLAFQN

B1: S009-F8-7.5 (antibody, human IgG1, kappa, V domains shown)
VH: DVQLQESGPGLVKPSQSLSLTCSVTGYSITSGYYWNWIRQFPGNKLEWMAYIRYDGSNNYNPSLKNRISIIRDTSKNQFFLRLNSVTTEDTATYYCAKSYYGMDDWGQGISVTVSS
VL: DIQMTQSPASLSASVGETVTITCRTSGDIHNYLAWYQQKQGKSPQLLVYKAKTLENGVPSRFTGSGSGTQFSLKIDSLQPEDFGTYYCQHFWTTPYTFGGGTKLEIKR
With B1, the OD450 in assay [1] is 0.05 OD450; in assay [2] it was 1.85 OD450; in assay [3], 0.06 OD450; in assay [4], 2.18 OD450; in assay [5], 0.05 OD450; in assay [6], 0.12 OD450. Besides, the OD450 was found to be 1.18 OD450 in assay [7]; 2.32 OD450 in assay [8]; 0.04 OD450 in [9]; 0.31 OD450 in assay [10]; 0.05 OD450 in assay [11]; 0.09 OD450 in assay [12]. Besides, the OD450 turned out to be 0.04 OD450 in assay [13], 0.06 OD450 in [14], 0.05 OD450 in assay [15] and 0.05 OD450 in assay [16].

B2: Tab106 (YP218, hIgG1) (antibody, V domains shown)
VH: QQQLEESGGGLVKPEGSLTLTCKASGFDLGFYFYACWVRQAPGKGLEWIACIYTAGSGSTYYASWAKGRFTISKASSTTVTLQMTSLAAADTATYFCARSTANTRSTYYLNLWGPGTLVTVSS
VL: DVVMTQTPASVSEPVGGTVTIKCQASQRISSYLSWYQQKPGQRPKLLIFGASTLASGVPSRFKGSGSGTEYTLTISDLECADAATYYCQSYAYFDSNNWHAFGGGTEVVVRT
notes: also called YP218 human IgG1 antibody
Take B2: the OD450 in [2] amounted to 0.04 OD450; in assay [17], 1.99 OD450; in assay [4], 0.06 OD450; in assay [18], 1.81 OD450; in assay [7], 0.04 OD450; in [8] it was 0.22 OD450. The OD450 came out at 1.38 OD450 in [19]; 2.28 OD450 in assay [20]; 0.04 OD450 in [10]; 0.52 OD450 in assay [21]; 0.04 OD450 in assay [12]; 0.14 OD450 in assay [22]. In addition, the OD450 in [14] amounted to 0.04 OD450; in assay [23], 0.09 OD450; in [16], 0.04 OD450; in [24] it was 0.04 OD450.

B3: S009-F8-4.5 (antibody, human IgG1, kappa, V domains shown)
VH: QVQLQQPGAELVKPGASVKLSCKASGYTFTIYWMHWVKQRPGQGLEWIGMIHPNSGNTNYNEKFKSKATLTVDKSSSTAYMQLSSLTSEDSAVYYCSLIHWYFDVWGTGTTVTVSS
VL: QIVLTQSPAIMSASPGEKVTMTCSASSSVSYMYWYQQKPGSSPRLLIYDTSNLASGVPVRFSGSGSGTSYSLTISRMEAEDAATYYCQQWSSYPLTFGAGTKLELKR
In the case of B3, the OD450 is 0.05 OD450 in assay [1]; 0.05 OD450 in assay [2]; 0.05 OD450 in assay [17]; 0.09 OD450 in [3]; 0.06 OD450 in assay [4]; 0.07 OD450 in assay [18]. The OD450 in assay [5] is 0.05 OD450; in assay [6], 0.24 OD450; in assay [7] it was 0.05 OD450; in [8] it was 0.08 OD450; in [19] it was 0.05 OD450; in assay [20] it was 0.12 OD450. Moreover, the OD450 in assay [9] worked out at 0.05 OD450; in assay [10] it was 0.05 OD450; in assay [21] it was 0.04 OD450; in [11] it was 0.05 OD450; in assay [12], 0.05 OD450; in [22], 0.05 OD450. In addition, the OD450 in assay [13] was found to be 0.05 OD450; in [14] it was 0.05 OD450; in [23], 0.05 OD450; in assay [15] it was 0.05 OD450; in [16] it was 0.05 OD450; in assay [24], 0.06 OD450.

B4: S009-F8-5.15 (antibody, human IgG1, kappa, V domains shown)
VH: QVQLQQPGTELVKPGASVKLSCKASGYTFTSYWMHWVKQRPGQGLEWIGHSNPSNGGTNYNEKFKSKATLTVDKSSSTAYMQLSSLTSEDSAVYYCARWVRGSNYEYFDVWGTGTTVTVSS
VL: DIVMTQSQKFMSTTVGDRVSIICKASQNVGSAVAWCQQKPGQSPKLLIYSASNRYTGVPDRFTGSGSGTDFTLTISNMQSEDLADYFCQQYSSYPLTFAGGTKLEIKR
For B4, the OD450 in assay [1] amounted to 0.68 OD450; in [2], 0.04 OD450; in [17], 0.04 OD450; in [3] it was 1.65 OD450; in [4], 0.05 OD450; in [18] it was 0.05 OD450. Also, the OD450 in assay [5] came to 0.12 OD450; in assay [6], 2.29 OD450; in assay [7] it was 0.04 OD450; in assay [8], 0.05 OD450; in assay [19] it was 0.04 OD450; in assay [20], 0.06 OD450. Further, the OD450 in assay [9] came to 0.05 OD450; in assay [10], 0.04 OD450; in assay [21] it was 0.04 OD450; in assay [11] it was 0.05 OD450; in assay [12] it was 0.05 OD450; in assay [22] it was 0.05 OD450. The OD450 in assay [13] was found to be 0.04 OD450; in assay [14] it was 0.05 OD450; in assay [23] it was 0.04 OD450; in assay [15], 0.05 OD450; in assay [16] it was 0.05 OD450; in [24], 0.05 OD450.

B5: S009-F8-8.22 (antibody, human IgG1, kappa, V domains shown)
VH: EVQLQQSGPELVKPGASVKMSCKASGYTFTDYIIHWVKQSHGKSLEWIAYIFPNNGGTGYNQKFRGKATLTVNKSSSTAYMELRSLTSEDSAVYYCARWRLRQYFDVWGTGTTVTVSS
VL: DIVMTQSQKFMSTIVGDRVSITCKASQNVGTAVAWYQQKPGQSPKLLIYSASNRYTGVPDRFTGSGSGTDFTLTISNMQSEDLADYFCQQYSSYPLTFGGGTKLEIKR
Regarding B5, the OD450 in [1] was found to be 2.46 OD450; in [2] it was 0.04 OD450; in assay [17], 0.05 OD450; in assay [3] it was 2.63 OD450; in [4], 0.05 OD450; in assay [18], 0.08 OD450. For the same molecule, the OD450 in assay [5] came to 1.78 OD450; in assay [6], 2.63 OD450; in assay [7] it was 0.04 OD450; in assay [8] it was 0.09 OD450; in [19] it was 0.04 OD450; in assay [20], 0.15 OD450. In addition, the OD450 in assay [9] came out at 0.61 OD450; in assay [10] it was 0.04 OD450; in [21] it was 0.04 OD450; in [11], 0.16 OD450; in assay [12] it was 0.05 OD450; in assay [22], 0.04 OD450. The OD450 in assay [13] amounted to 0.08 OD450; in assay [14] it was 0.05 OD450; in assay [23], 0.04 OD450; in [15] it was 0.06 OD450; in [16] it was 0.04 OD450; in assay [24], 0.04 OD450.
